{"source": "patent US20190256585A1", "about": "(IMMUNEMED, published 2019)", "binders": {"B1": {"name": "humanized virus suppressing factor wild-type (hzVSF_wt) (antibody, V domains shown)", "VH": "EVQLVQSGAEVKKPGASVKVSCKASGYTFTGYNMNWVRQAPGKGLEWMGNIDPYYGSTTYAQKFQGRVTMTVDKSISTAYMELSRLRSDDTAVYYCARETGTRAMDYWGQGTLVTVSS", "VL": "DIQMTQSPSSLSASVGDRVTITCRASENIYSNLAWYQQKPGKAPKLLIYVATNLADGVPSRFSGSGSGTDFTLTISSLQPEDFATYYCQHFYGSPRTFGGGTKVEIK", "notes": "also called hzVSF wild-type"}, "B2": {"name": "hzVSF_var13 (antibody, V domains shown)", "VH": "B1 VH with T58D", "VL": "B1 VL with T52D", "notes": "constant regions not tied to this variant; also called hzVSF v13"}, "B3": {"name": "hzVSF_var10 (antibody, V domains shown)", "VH": "B1 VH with T58D, K74T, I76A, T102N", "VL": "B1 VL with T52D, L54R, A55G", "notes": "Humanized IgG variant of hzVSF; constant regions not tied to this variant"}, "B4": {"name": "hzVSF_var5 (antibody, V domains shown)", "VH": "B1 VH with T58D", "VL": "B1 VL", "notes": "as for B3"}, "B5": {"name": "hzVSF_var9 (antibody, V domains shown)", "VH": "B1 VH with T58D, K74T, I76A", "VL": "B1 VL with T52D, L54R, A55G", "notes": "as for B3"}, "B6": {"name": "hzVSF_var1 (antibody, V domains shown)", "VH": "B1 VH", "VL": "B1 VL with T52D", "notes": "Humanized IgG variant of hzVSF; constant regions not tied to this variant; also called hzVSF_1"}, "B7": {"name": "hzVSF_var7 (antibody, V domains shown)", "VH": "B1 VH with T58D, K74T, I76A", "VL": "B1 VL", "notes": "as for B3"}, "B8": {"name": "hzVSF_var11 (antibody, V domains shown)", "VH": "B1 VH with T58D, K74T, I76A", "VL": "B1 VL with T52D, L54R, A55G, S94T", "notes": "as for B3"}, "B9": {"name": "hzVSF_var2 (antibody, V domains shown)", "VH": "B1 VH", "VL": "B1 VL with T52D, A55G", "notes": "as for B3"}, "B10": {"name": "hzVSF_var4 (antibody, V domains shown)", "VH": "B1 VH", "VL": "B1 VL with T52D, L54R, A55G, S94T", "notes": "as for B3"}, "B11": {"name": "hzVSF_var6 (antibody, V domains shown)", "VH": "B1 VH with K74T, I76A", "VL": "B1 VL", "notes": "as for B3"}, "B12": {"name": "hzVSF_var8 (antibody, V domains shown)", "VH": "B1 VH with T58D, K74T, I76A, T102N", "VL": "B1 VL", "notes": "as for B3"}, "B13": {"name": "hzVSF_var3 (antibody, V domains shown)", "VH": "B1 VH", "VL": "B1 VL with T52D, L54R, A55G", "notes": "as for B3"}, "B14": {"name": "hzVSF_var12 (antibody, V domains shown)", "VH": "B1 VH with T58D, K74T, I76A, T102N", "VL": "B1 VL with T52D, L54R, A55G, S94T", "notes": "as for B3"}, "B15": {"name": "mouse virus suppressing factor (mVSF) (antibody, V domains shown)", "VH": "EIQLQQSGAELVKPGASVKISCKASGYSFTGYNMNWVKQSHGKSLEWIGNIDPYYGSTTYNQKFKGKATLTVDKSSSTAYMQLNSLTSEDSAVYYCARETGTRAMDYWGQGTSVTVSS", "VL": "DIQMTQSPASLSASVGETVTMTCRASENIYSNLAWYQQKQGKSPQLLVYVATNLADGVPSRFSGSGSGTQFSLKINSLQPEDFGSYYCQHFYGSPRTFGGGTKLEIKR", "notes": "also called mouse VSF"}}, "note": "Positions count from the first letter of the chain named.", "data": [{"molecular_target": "isolated peptide of SEQ ID NO: 1 (vimentin amino acid positions 142 to 294)", "assay": "method not described (refers to FIGS. 54 to 58)", "values": [{"binder": "B1", "binding result": "binds"}, {"binder": "B2", "binding result": "binds"}, {"binder": "B3", "binding result": "binds"}, {"binder": "B4", "binding result": "binds"}, {"binder": "B5", "binding result": "binds"}, {"binder": "B6", "binding result": "binds"}, {"binder": "B7", "binding result": "binds"}, {"binder": "B8", "binding result": "binds"}, {"binder": "B9", "binding result": "binds"}, {"binder": "B10", "binding result": "binds"}, {"binder": "B11", "binding result": "binds"}, {"binder": "B12", "binding result": "binds"}, {"binder": "B13", "binding result": "binds"}, {"binder": "B14", "binding result": "binds"}]}, {"molecular_target": "T1, VSF receptors on L929 cells infected with EMC-D virus (mouse, UniProt P20152 2-466)", "T1 construct": "also called receptors of hzVSF; VR", "T1 sequence (P20152 2-466 limits assumed, form in doubt)": "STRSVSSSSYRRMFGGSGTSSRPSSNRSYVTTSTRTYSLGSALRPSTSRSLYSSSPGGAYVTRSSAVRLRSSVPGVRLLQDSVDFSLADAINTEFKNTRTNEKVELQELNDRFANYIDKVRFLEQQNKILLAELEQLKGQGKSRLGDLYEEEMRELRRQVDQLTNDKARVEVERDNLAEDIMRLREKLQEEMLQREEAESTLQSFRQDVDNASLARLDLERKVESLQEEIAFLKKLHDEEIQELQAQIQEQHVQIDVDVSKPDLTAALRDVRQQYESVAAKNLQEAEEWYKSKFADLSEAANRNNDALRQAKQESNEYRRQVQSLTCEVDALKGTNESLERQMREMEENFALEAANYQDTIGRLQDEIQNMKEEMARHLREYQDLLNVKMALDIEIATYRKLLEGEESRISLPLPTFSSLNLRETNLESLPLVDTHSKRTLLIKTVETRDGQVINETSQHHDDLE", "assay": "depletion of ligand from the culture supernatant of EMC-D-infected L929 cells (added minus recovered after 1 hour)", "description": "L929 cells were seeded at the amount of 6×10⁵ cells and infected with 2 MOI of EMC-D virus for 0, 2, 6, and 10 hours, respectively. […] The difference between the amount of each ligand added and the amount of the collected ligand after reaction is the amount of the ligand bound to the receptors, and based on the result, the affinity constant (Ka) and the dissociation constant (Kd) were calculated (Table 11).", "units": {"Ka": "M⁻¹", "Kd": "pM"}, "values": [{"binder": "B15", "Ka": "2.1e+10", "Kd": 47}, {"binder": "B1", "Ka": "8.2e+09", "Kd": 120}, {"binder": "B2", "Ka": "1.7e+10", "Kd": 59}]}]}
